Experimental findings from paper PMC10509167, “Identification and characterization of endo-α-, exo-α-, and exo-β-D-arabinofuranosidases degrading lipoarabinomannan and arabinogalactan of mycobacteria” (Nature Communications, 2023) are described below.

For test [1], the target named is EndoMA1 (MIAR_33230), GH183 (DUF4185) endo-D-arabinanase from Microbacterium arabinogalactanolyticum, recombinant wild type (Microbacterium arabinogalactanolyticum JCM 9171). In words: SEC-SAXS; SEC-SAXS of EndoMA1 at beamline BL-10C of the Photon Factory, same column and buffer as SEC-MALS/RI; profile compared with the dimeric apo crystal structure.
Test [2] shares this target. The test is described as follows: SEC-MALS; SEC-MALS/RI of EndoMA1, KW403-4F column (Shodex), DAWN HELEOS II; self-association in solution.
The target is the same in test [3]. The test is described as follows: crystal structure; EndoMA1 wild type, apo form, 1.60 Å; sitting-drop vapor diffusion, 20 °C.
The target of test [4] is EndoMA1 D51N catalytic residue mutant (Microbacterium arabinogalactanolyticum JCM 9171). In words: crystal structure; EndoMA1 D51N co-crystallised with 10 mM A9LT, 1.80 Å; microseeding, 30 °C; four chains (A-D) in the asymmetric unit.
Test [5] deals with ExoMA1 (MIAR_33200), GH172 exo-α-D-arabinofuranosidase from Microbacterium arabinogalactanolyticum, recombinant (Microbacterium arabinogalactanolyticum JCM 9171). In words: SEC; SEC of ExoMA1 in solution (Supplementary Fig. 19a).
Test [6] has the same target. In words: crystal structure; ExoMA1 apo form, 2.42 Å; dodecamer in the asymmetric unit; sitting-drop vapor diffusion, 20 °C.
The target is the same in test [7]. In words: negative-stain transmission electron microscopy; purified ExoMA1 0.1 mg/mL in 10 mM Tris-HCl (pH 7.5), 500 mM NaCl, on carbon-coated copper grids, 2% uranyl acetate, 120 kV.

Regarding “EndoMA1 (MIAR_33230), GH183 (DUF4185) endo-D-arabinanase from Microbacterium arabinogalactanolyticum, recombinant wild type (enzyme)”, the stoichiometry N in test [1], in test [2] and in test [3] was 2 throughout.
With “EndoMA1 D51N catalytic residue mutant (enzyme)”, in test [4], the stoichiometry N came to 2.
As to “ExoMA1 (MIAR_33200), GH172 exo-α-D-arabinofuranosidase from Microbacterium arabinogalactanolyticum, recombinant (enzyme)”, the stoichiometry N in test [5] was above 7; in test [6] it was 12; in test [7], 12.
